Source: patent US20220403048A1, “BINDING MOLECULES TO ARGINASE II [ARG2]” (Cancer Research Technology Limited, priority 2019, published 2022)

Target: recombinant human trimeric ARG2 enzyme (construct not given) (human) (UniProt P78540)
Test: cell-based or functional assay

Chain of recombinant human trimeric ARG2 enzyme (construct not given) (human) (P78540 23-354, form in doubt): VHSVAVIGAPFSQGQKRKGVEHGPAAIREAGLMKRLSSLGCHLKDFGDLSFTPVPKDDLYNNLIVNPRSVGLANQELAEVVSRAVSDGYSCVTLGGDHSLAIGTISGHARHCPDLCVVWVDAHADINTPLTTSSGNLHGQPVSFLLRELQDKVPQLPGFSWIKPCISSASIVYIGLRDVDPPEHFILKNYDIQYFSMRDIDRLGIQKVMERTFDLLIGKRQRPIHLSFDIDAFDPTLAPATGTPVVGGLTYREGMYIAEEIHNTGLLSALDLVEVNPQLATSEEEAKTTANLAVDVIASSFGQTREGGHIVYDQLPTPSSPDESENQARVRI

EC50, In Presence of rhARG2 (T cell proliferation): > 2000 nM
Maximum % Proliferation, In Presence of rhARG2: 7%
Substance: NIP228 human IgG1 (antibody)
